These results are taken from publication PMC7617670, “Activity Regulation of a Glutamine Amidotransferase Bienzyme Complex by Substrate-Induced Subunit Interface Expansion” (ACS catalysis, 2025).

Assay in all cases: ITC; 250 μM PabB titrated into 25 μM PabA in the cell; 25 °C; 50 mM Tris/HCl pH 7.5, 50 mM KCl, 5 mM MgCl2; without Cho and Gln; one set of sites
Holding throughout (details): both partners purified

One experiment concerns the target T1, PabB variant bY210F (Escherichia coli, UniProt P05041 1-453, bY210F).
T1 construct: PabB, synthase subunit of ADCS, E. coli; construct as m2 with one exchange; Made by QuikChange mutagenesis from the construct of m2; source: E. coli BL21-Gold (DE3), purified (Ni-IMAC, preparative gel filtration)
T1 sequence: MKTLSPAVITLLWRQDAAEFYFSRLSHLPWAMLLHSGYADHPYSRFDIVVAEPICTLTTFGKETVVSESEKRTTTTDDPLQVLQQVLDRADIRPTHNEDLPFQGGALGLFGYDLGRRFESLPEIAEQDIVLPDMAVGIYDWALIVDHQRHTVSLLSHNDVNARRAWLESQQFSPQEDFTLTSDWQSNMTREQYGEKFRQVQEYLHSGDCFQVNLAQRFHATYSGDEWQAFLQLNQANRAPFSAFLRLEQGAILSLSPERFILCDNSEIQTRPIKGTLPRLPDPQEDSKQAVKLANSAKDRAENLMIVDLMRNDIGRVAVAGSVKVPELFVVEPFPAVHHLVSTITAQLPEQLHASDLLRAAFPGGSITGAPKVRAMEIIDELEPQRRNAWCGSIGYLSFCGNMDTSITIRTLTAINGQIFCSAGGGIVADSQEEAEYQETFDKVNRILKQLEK

In the next experiment the target is T2, PabB variant bD308E (Escherichia coli, UniProt P05041 1-453, bD308E).
T2 construct: PabB, synthase subunit of ADCS, E. coli; construct as m2 with one exchange; Made by QuikChange mutagenesis from the construct of m2; source: E. coli BL21-Gold (DE3), purified (Ni-IMAC, preparative gel filtration)
T2 sequence: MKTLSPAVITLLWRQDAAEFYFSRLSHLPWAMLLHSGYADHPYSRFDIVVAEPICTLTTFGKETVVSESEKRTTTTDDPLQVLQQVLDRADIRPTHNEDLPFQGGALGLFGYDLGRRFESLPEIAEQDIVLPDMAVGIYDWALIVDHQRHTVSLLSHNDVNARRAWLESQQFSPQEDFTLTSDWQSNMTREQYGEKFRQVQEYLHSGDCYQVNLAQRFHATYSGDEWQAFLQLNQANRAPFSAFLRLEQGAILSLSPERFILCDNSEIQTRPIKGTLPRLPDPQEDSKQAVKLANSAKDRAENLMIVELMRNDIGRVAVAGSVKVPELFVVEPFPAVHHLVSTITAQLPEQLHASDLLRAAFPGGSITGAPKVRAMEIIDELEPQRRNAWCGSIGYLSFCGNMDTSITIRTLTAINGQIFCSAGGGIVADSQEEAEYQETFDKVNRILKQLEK

The next experiment has as its target T3, PabB variant bY210A (Escherichia coli, UniProt P05041 1-453, bY210A).
T3 construct: PabB, synthase subunit of ADCS, E. coli; construct as m2 with one exchange; Made by QuikChange mutagenesis from the construct of m2; source: E. coli BL21-Gold (DE3), purified (Ni-IMAC, preparative gel filtration)
T3 sequence: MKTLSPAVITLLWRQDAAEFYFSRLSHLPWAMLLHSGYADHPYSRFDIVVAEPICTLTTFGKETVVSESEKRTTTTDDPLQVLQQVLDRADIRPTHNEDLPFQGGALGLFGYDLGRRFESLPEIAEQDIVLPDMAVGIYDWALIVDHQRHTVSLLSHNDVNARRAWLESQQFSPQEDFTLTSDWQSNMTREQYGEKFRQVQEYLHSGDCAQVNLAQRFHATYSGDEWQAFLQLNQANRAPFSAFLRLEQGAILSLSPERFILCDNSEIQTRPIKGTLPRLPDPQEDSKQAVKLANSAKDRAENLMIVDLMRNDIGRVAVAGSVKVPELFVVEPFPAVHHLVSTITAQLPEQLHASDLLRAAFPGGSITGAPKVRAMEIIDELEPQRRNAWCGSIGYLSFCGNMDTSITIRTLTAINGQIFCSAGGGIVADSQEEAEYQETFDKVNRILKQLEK

The next experiment deals with T4, PabB variant bG207P (Escherichia coli, UniProt P05041 1-453, bG207P).
T4 construct: PabB, synthase subunit of ADCS, E. coli; construct as m2 with one exchange; Made by QuikChange mutagenesis from the construct of m2; source: E. coli BL21-Gold (DE3), purified (Ni-IMAC, preparative gel filtration)
T4 sequence: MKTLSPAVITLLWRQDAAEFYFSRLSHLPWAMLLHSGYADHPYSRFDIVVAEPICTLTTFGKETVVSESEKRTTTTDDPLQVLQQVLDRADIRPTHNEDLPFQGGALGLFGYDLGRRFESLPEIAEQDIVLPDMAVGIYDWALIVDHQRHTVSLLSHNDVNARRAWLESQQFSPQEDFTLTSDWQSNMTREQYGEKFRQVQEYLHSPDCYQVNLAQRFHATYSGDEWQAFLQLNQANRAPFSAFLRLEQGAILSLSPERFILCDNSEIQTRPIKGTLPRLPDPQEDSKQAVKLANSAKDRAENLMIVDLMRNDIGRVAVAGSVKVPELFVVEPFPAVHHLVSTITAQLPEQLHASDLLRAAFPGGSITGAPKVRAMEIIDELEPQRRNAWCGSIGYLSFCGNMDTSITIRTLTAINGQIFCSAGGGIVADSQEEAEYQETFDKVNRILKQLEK

For a further experiment, the target named is T5, PabB variant bE119D (Escherichia coli, UniProt P05041 1-453, bE119D).
T5 construct: PabB, synthase subunit of ADCS, E. coli; construct as m2 with one exchange; Made by QuikChange mutagenesis from the construct of m2; source: E. coli BL21-Gold (DE3), purified (Ni-IMAC, preparative gel filtration)
T5 sequence: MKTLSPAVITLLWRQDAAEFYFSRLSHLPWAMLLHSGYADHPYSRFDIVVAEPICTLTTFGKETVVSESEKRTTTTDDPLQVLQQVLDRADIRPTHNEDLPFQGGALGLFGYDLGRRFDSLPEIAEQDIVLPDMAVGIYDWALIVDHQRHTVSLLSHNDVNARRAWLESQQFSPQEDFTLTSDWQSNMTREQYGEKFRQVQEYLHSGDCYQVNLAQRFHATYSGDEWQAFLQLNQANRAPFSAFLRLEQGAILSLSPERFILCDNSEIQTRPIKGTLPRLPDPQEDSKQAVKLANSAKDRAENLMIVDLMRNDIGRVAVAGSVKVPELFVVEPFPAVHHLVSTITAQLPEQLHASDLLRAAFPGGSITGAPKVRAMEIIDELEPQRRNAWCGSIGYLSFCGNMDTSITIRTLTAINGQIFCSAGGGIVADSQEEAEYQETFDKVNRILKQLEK

In general, Kd refers to the concentration at which binding is half-saturated. A higher Kd goes with lower affinity.

B1: PabA, glutaminase subunit of aminodeoxychorismate synthase (ADCS) from Escherichia coli, wild type (enzyme)
chain: MILLIDNYDSFTWNLYQYFCELGADVLVKRNDALTLADIDALKPQKIVISPGPCTPDEAGISLDVIRHYAGRLPILGVCLGHQAMAQAFGGKVVRAAKVMHGKTSPITHNGEGVFRGLANPLTVTRYHSLVVEPDSLPACFDVTAWSETREIMGIRHRQWDLEGVQFHPESILSEQGHQLLANFLHR
notes: PabA, class I glutaminase subunit of ADCS, E. coli; the gene was cloned into pET28a; Form used for SEC, ITC and kinetics; TEV cleavage is told only of the proteins used for crystallization; The G5H-Tag stands between the TEV site and the start methionine of PabA; also called wt PabA; ADCS glutaminase subunit; source: E. coli BL21-Gold (DE3), purified (Ni-IMAC, preparative gel filtration)
In the case of B1, the dissociation constant Kd with PabB variant bY210F turned out to be 530 nM; in the experiment with PabB variant bD308E it was 1700 nM; with PabB variant bY210A, 5500 nM; with PabB variant bG207P, 1700 nM; with PabB variant bE119D it was 840 nM.
